These are literature values, as cited in article PMC2726996.

Data set [1] concerns the target EGFR (low-affinity sites) (Homo sapiens) (UniProt P00533).
For data set [2], the target named is EGFR (high-affinity sites) (Homo sapiens) (UniProt P00533).

EGF (from UniProt P01133): the Kd (usually the free concentration of one partner at which half of the binding sites on the other are occupied at equilibrium, for simple one-to-one binding) in data set [1] was 10 nM; in data set [2], < 0.1 nM.
